Legend:
TRAF2 = biological target: T1, TRAF2 (Homo sapiens, UniProt Q12933); experiment: In-vitro protein-binding assay, TRAF2; settings: FLAG-TRAF2 incubated with GST-SIVA2
T1 construct: made in house; host or cells: HEK293T (FLAG-TRAF2); bacteria, pGEX2T (GST-SIVA2)
T1 sequence (Q12933 1-501): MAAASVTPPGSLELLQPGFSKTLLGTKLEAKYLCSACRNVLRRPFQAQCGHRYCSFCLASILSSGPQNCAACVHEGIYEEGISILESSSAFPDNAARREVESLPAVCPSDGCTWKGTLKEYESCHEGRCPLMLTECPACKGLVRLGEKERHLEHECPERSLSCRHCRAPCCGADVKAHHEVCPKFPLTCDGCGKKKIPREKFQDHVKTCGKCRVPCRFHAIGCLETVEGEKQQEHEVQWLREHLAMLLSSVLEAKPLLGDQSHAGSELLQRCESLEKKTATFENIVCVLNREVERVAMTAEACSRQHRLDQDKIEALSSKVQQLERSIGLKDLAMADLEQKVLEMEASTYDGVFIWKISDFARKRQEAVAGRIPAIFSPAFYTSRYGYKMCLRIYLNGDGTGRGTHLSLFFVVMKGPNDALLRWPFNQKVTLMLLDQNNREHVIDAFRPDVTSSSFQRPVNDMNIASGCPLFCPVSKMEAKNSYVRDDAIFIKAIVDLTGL
Description: (§1) (A) Transfected SIVA2 binds to endogenous TRAF2. FLAG-SIVA2 or HIS-SIVA2 (control) was transfected into HEK293T cells. SIVA2 was immunoprecipitated using anti-FLAG M2 beads and the co-precipitated cellular TRAF2 was assayed by western blotting. The total cellular level of TRAF2 is shown at the bottom. (B) SIVA2 binds TRAF2 inducibly. Treatment of the cells EcR293-CD27-SIVA2 with ponasterone for 2 h to induce SIVA2, and treated with CD70 as indicated was followed by immunoprecipitation of TRAF2. […] FLAG-tagged TRAF2 was immunoprecipitated from transfected HEK293T cells with anti-FLAG M2 beads, eluted from the beads using FLAG peptide and incubated with GST-SIVA2 or its mutant, and then subjected to immunoprecipitation and western blotting as indicated. […] Left panel: Binding in vitro. Recombinant cIAP1 was incubated with GST-SIVA2 or its mutant. Right and bottom panels depict binding in transfected HEK293T cells. Right panel: Cells were transfected with HIS-SIVA2, HIS-SIVA2 (1-58), or FLAG-TRAF2. After 28 h the endogenous cIAP1 was immunoprecipitated. MG132 was applied for the last 6 h of incubation. Bottom panel: Cells were transfected with FLAG-SIVA2, FLAG-SIVA2 (1-58) or, as a specificity control, FLAG-GST-BR3-ICD* (in which the BAFF receptor intracellular domain is mutated at its TRAF3-binding region (PVPAT>AVAAA)). […] N/A, not analyzed. […]

cIAP1 [1] = biological target: T2, cIAP1 (Homo sapiens, UniProt Q13490); experiment: In-vitro protein-binding assay, cIAP1; settings: recombinant cIAP1 incubated with GST-SIVA2
Description: as §1

cIAP1 [2] = biological target: T2, cIAP1; experiment: In-vitro substrate ubiquitination assay, cIAP1; type: biochemical; settings: recombinant cIAP1, E2 UbCH5b or Ubc13/Uev1a
Description: FIG. 9 SIVA2 mediates ubquitination of both TRAF2 and cIAP1. (A) cIAP-1 is required for SIVA2-mediated TRAF2 ubiquitination in cells. HEK293T cells were transfected with cIAP1 siRNA and, 24 h later, with the other plasmids as indicated. The extent of ubiquitination of the TRAF2 immunoprecipitated from the lysates of these cells, as well as the cellular levels of the endogenous cIAP1 and cIAP2 and the transfected ubiquitin, were determined by western blot analyses. (B) SIVA2, but not SIVA1, enhances K48-linked polyubiquitination of TRAF2 in cells. HEK293T cells grown in 90-mm plates were transfected by the calcium phosphate method with 4 μg of FLAG-TRAF2 (C34A), together with […] of HA-ubiquitin mutant plasmids and 6 μg of HIS-SIVA2 or HIS-SIVA2 (C73A) or HIS-SIVA1. The cells were lysed 24 h after transfection and TRAF2 was precipitated and analyzed as indicated. Wild-type SIVA2 and SIVA1, as well as SIVA2 (C73A) mutant, co-precipitated with TRAF2 (bottom panel). […]
In-vitro ubiquitination. […] Supernatants of the reaction were analyzed for free polyubiquitin chains formed in solution. For assay of self-ubiquitination of SIVA2 the glutathione beads were washed three times with a buffer containing 20 mM HEPES pH 7.6, 250 mM NaCl, 1 mM DTT, 1% Triton X-100 and Complete Protease Inhibitor Cocktail, boiled with LDS sample buffer (Invitrogen), and analyzed by western blotting. […]

T2 sequence (Q13490 whole entry, species assumed): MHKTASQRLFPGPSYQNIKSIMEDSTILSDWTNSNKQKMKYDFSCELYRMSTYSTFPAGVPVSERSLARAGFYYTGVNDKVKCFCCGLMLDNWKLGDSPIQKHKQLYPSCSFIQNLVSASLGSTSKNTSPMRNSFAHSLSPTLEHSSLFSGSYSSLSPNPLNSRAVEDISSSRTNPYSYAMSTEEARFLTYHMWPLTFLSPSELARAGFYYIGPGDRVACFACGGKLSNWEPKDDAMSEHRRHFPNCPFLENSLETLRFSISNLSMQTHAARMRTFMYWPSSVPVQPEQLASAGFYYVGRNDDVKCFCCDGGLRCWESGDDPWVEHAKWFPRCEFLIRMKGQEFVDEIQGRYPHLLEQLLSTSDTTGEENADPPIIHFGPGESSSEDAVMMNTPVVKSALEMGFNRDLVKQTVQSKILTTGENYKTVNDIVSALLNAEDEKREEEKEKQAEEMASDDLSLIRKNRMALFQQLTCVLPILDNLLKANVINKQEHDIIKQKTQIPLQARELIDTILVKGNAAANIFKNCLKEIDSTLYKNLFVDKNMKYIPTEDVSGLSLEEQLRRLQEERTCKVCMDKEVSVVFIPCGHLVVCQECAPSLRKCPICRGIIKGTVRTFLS

B1: SIVA2: short splice variant of SIVA, E3 ligase (NM—021709, SEQ ID NO:11); recombinant GST fusion in in-vitro tests (protein)
chain: MPKRSCPFADVAPLQLKVRVSQRELSRGVCAERYSQEVFDPSGVASIACSSCVRAVDGKAVCGQCERALCGQCVRTCWGCGSVACTLCGLVDCSDMYEKVLCTSCAMFET
modifications: left off: a dimerising Fc or GST; large carriers; small tags and cut ends
notes: recombinant GST fusion in in-vitro tests
With B1 the “binding of SIVA2 to TRAF2 in vitro” value (TRAF2) was “binds TRAF2 in vitro”, the “binding of SIVA2 to cIAP1” value (cIAP1 [1]) was “binds at its N-terminus to cIAP1” and the “ubiquitination of cIAP1” value (cIAP1 [2]) was “effectively ubiquitinated”.
